Common to all, as to assay: pull-down
Test [1] deals with T1, purified GST-PDK1 (UniProt Q15118 29-436).
In test [2] the target is T1, purified GST-PDK1. This is another data set of the same source.
The target of another test is T2, purified GST-PDP1 Y381F (UniProt Q9P0J1 72-537, Y381F).
T2 sequence (looked up): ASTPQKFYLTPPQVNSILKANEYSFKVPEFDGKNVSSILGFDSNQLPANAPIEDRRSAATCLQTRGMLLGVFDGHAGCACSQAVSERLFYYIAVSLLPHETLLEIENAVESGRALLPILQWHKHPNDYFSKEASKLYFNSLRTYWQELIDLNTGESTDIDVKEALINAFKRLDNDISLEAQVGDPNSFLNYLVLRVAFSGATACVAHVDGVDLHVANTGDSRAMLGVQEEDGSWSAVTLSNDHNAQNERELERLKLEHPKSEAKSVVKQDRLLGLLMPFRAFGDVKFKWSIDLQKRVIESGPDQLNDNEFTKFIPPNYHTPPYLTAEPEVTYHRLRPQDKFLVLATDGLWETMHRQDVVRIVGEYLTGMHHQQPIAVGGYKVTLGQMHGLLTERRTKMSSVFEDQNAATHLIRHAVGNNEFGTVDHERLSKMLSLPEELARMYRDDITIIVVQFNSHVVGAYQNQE

Numbering of substitutions follows the chain as printed. In names and notes the source's numbering stands. Where two headings read alike, the source gives them in different places.

T1 sequence (Q15118 29-436): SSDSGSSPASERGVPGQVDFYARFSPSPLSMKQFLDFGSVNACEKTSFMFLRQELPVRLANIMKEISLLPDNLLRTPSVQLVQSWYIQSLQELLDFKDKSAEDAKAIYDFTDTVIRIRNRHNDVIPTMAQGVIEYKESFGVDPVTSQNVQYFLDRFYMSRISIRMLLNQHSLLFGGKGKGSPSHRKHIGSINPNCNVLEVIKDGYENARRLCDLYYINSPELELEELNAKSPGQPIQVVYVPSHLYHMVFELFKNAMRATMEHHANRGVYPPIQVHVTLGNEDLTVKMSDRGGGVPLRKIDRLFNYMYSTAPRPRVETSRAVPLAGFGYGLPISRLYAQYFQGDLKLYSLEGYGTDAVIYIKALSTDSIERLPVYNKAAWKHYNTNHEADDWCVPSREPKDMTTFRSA

B1: purified recombinant FLAG-PDHA1 K244R, incubated with NAM+TSA-treated H1299 cell lysates (enzyme, UniProt P08559 30-390, looked up)
chain: FANDATFEIKKCDLHRLEEGPPVTTVLTREDGLKYYRMMQTVRRMELKADQLYKQKIIRGFCHLCDGQEACCVGLEAGINPTDHLITAYRAHGFTFTRGLSVREILAELTGRKGGCAKGKGGSMHMYAKNFYGGNGIVGAQVPLGAGIALACKYNGKDEVCLTLYGDGAANQGQIFEAYNMAALWKLPCIFICENNRYGMGTSVERAAASTDYYRRGDFIPGLRVDGMDILCVREATRFAAAYCRSGKGPILMELQTYRYHGHSMSDPGVSYRTREEIQEVRSKSDPIMLLKDRMVNSNLASVEELKEIDVEVRKEIEDAAQFATADPEPPLEELGYHIYSSDPPFEVRGANQWIKFKSVS
modifications: lysine acetylation by the lysates (K321 is the site that the paper ties to PDK1 binding)
As to B1, the binding result in the test with purified GST-PDK1 [1] is on record as “binds”.

B2: purified recombinant FLAG-PDHA1 K321R (enzyme, UniProt P08559 30-390, looked up)
chain: B1 chain with R215K, K292R
B2: the binding result with purified GST-PDK1 [2] is “binds”.

B3: recombinant FLAG-ACAT1 (enzyme, UniProt P24752 34-427, looked up)
chain: VSKPTLKEVVIVSATRTPIGSFLGSLSLLPATKLGSIAIQGAIEKAGIPKEEVKEAYMGNVLQGGEGQAPTRQAVLGAGLPISTPCTTINKVCASGMKAIMMASQSLMCGHQDVMVAGGMESMSNVPYVMNRGSTPYGGVKLEDLIVKDGLTDVYNKIHMGSCAENTAKKLNIARNEQDAYAINSYTRSKAAWEAGKFGNEVIPVTVTVKGQPDVVVKEDEEYKRVDFSKVPKLKTVFQKENGTVTAANASTLNDGAAALVLMTADAAKRLNVTPLARIVAFADAAVEPIDFPIAPVYAASMVLKDVGLKKEDIAMWEVNEAFSLVVLANIKMLEIDPQKVNINGGAVSLGHPIGMSGARIVGHLTHALKQGEYGLASICNGGGGASAMLIQKL
Take B3: the binding result with purified GST-PDP1 Y381F was “binds”.

The record behind these values is publication PMC3943932 (Molecular cell, 2014).
